Measured values taken from patent publication US20200262868A1 (DIGNIFY THERAPEUTICS, published 2020).
Where no end group is shown, it is not given here. [ ]: non-standard residue; d: D form. NMeL = CN[C@@H](CC(C)C)C(=O)O; Nle = CCCC[C@H](N)C(=O)O

T1: human NK2 Receptor (human, UniProt P21452 1-398)
T1 construct: whole, on cells; calcium assays used intact CHO-hNK2 cells; also called hNK2R; hNK2
T1 sequence (looked up): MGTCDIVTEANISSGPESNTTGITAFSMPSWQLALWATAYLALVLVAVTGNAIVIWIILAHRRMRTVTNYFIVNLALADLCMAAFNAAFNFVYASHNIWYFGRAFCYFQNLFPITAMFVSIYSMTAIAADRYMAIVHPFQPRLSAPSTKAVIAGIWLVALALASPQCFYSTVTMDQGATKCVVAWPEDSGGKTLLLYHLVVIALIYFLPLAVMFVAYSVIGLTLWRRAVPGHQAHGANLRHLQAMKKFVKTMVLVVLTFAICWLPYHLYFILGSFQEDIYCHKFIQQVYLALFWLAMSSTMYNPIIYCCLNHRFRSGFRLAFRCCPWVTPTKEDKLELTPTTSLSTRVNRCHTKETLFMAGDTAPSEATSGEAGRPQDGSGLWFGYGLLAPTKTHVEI


Experiments:
[1] = molecular target: T1, human NK2 Receptor; assay: radioligand competition, displacement of 0.1 nM [125I]-NKA from CHO-hNK2 membranes
Procedure: (§1) Filtration Assays: Stock solutions of compounds (10 mM) were prepared in DMSO and stored at −20° C. until use. Further dilutions were performed in DMSO to provide an 11-point concentration response curve (CRC) spanning final concentrations from 0.01 nM to 10 μM. Radioligand binding experiments were performed immediately after transferring 2 μL of each concentration of test compound to a 96-well plate. […] After drying for 1 h at 40° C., 50 μL of Microscint-20 was added to each filter plate and bound radioactivity was measured using a Microplate TopCount (Packard C9912). […] Filters were washed 4 times with 1 mL ice cold 0.9% NaCl and placed into pico vials with 4 mL of Filter Count.

[2] = molecular target: T1, human NK2 Receptor; assay: cell-based or functional assay
[3] = molecular target: T2, human NK1 Receptor (human, UniProt P25103 1-407); assay: cell-based or functional assay
[4] = molecular target: T1, human NK2 Receptor; assay: cell-based or functional assay; remark: listed apart in the source
[5] = molecular target: T2, human NK1 Receptor; assay: cell-based or functional assay; remark: listed apart in the source
[6] = molecular target: T1, human NK2 Receptor; assay: ratio of Ki hNK1R/hNK2R from the radioligand competition assays
Procedure: as §1

[7] = molecular target: T2, human NK1 Receptor; assay: radioligand competition, displacement of 5.0 nM [3H]-septide from CHO-hNK1 membranes
Procedure: as §1

T2 sequence (P25103 whole entry): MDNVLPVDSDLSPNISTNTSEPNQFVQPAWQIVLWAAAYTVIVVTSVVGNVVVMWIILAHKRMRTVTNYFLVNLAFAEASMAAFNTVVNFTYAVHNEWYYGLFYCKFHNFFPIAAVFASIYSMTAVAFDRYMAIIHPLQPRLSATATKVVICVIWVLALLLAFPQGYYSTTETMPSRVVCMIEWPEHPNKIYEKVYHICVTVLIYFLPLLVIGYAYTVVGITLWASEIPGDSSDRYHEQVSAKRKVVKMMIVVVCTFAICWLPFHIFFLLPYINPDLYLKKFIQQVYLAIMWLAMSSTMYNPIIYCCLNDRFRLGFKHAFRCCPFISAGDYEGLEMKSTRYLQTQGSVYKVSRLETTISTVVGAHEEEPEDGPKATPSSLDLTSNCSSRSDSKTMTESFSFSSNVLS

| Binder | Ki [1] | hNK2 EC50 (intracellular calcium mobilization, FLIPR, CHO-hNK2 cells) [2] | hNK2 selectivity ratio (EC50 hNK1R/hNK2R) [2] | hNK1 EC50 (intracellular calcium mobilization, FLIPR, CHO-hNK1 cells) [3] | maximal calcium response compared to Neurokinin A [4] | maximal calcium response compared to Substance P [5] | hNK2 selectivity ratio [6] | Ki [7] |
| --- | --- | --- | --- | --- | --- | --- | --- | --- |
| DKFVG[NMeL]M-NH2 (synthetic heptapeptide analog of neurokinin A, Fmoc solid-phase synthesis; also called Compound A; Cmpd A) [Heptapeptide analog A, Asp-Lys-Phe-Val-Gly-(NMe-Leu)-Met-NH2] | 0.2 nM | 0.14 nM | – | 0.95 nM | > 80% | > 90% | – | 50.1 nM |
| DRFVGLM (HELM PEPTIDE1{D.R.F.V.G.[meL].M.[am]}$$$$V2.0; N-terminus assumed; SMILES CSCC[C@H](NC(=O)[C@H](CC(C)C)N(C)C(=O)CNC(=O)[C@@H](NC(=O)[C@H](Cc1ccccc1)NC(=O)[C@H](CCCNC(=N)N)NC(=O)[C@@H](N)CC(=O)O)C(C)C)C(N)=O, synthetic heptapeptide analog of neurokinin A, Fmoc solid-phase synthesis; also called Compound C; Cmpd C) [Heptapeptide analog C, Asp-Arg-Phe-Val-Gly-(NMe-Leu)-Met-NH2] | 0.12 nM | 0.16 nM | 2 ratio | 0.3 nM | > 80% | > 90% | 167 ratio | 20.9 nM |
| DKFVALM (HELM PEPTIDE1{D.K.F.V.[bAla].L.M.[am]}$$$$V2.0; N-terminus assumed; SMILES CSCC[C@H](NC(=O)[C@H](CC(C)C)NC(=O)CCNC(=O)[C@@H](NC(=O)[C@H](Cc1ccccc1)NC(=O)[C@H](CCCCN)NC(=O)[C@@H](N)CC(=O)O)C(C)C)C(N)=O, synthetic heptapeptide analog of neurokinin A, Fmoc solid-phase synthesis; also called Compound E; Cmpd E) [Heptapeptide analog E, Asp-Lys-Phe-Val-(β-Ala)-Leu-Met-NH2] | 2.11 nM | 0.18 nM | 36 ratio | 6.31 nM | > 80% | > 90% | 122 ratio | 257 nM |
| DRFVG[NMeL][Nle]-NH2 (synthetic heptapeptide analog of neurokinin A, Fmoc solid-phase synthesis; also called Compound B; Cmpd B) [Heptapeptide analog B, Asp-Arg-Phe-Val-Gly-(NMe-Leu)-Nle-NH2] | 0.59 nM | 0.08 nM | 70 ratio | 5.84 nM | > 80% | > 90% | 558 ratio | 331 nM |
| DKFVALX (HELM PEPTIDE1{D.K.F.V.[bAla].L.[Nle].[am]}$$$$V2.0; N-terminus assumed; SMILES CCCC[C@H](NC(=O)[C@H](CC(C)C)NC(=O)CCNC(=O)[C@@H](NC(=O)[C@H](Cc1ccccc1)NC(=O)[C@H](CCCCN)NC(=O)[C@@H](N)CC(=O)O)C(C)C)C(N)=O, synthetic heptapeptide analog of neurokinin A, Fmoc solid-phase synthesis; also called Compound G; Cmpd G) [Heptapeptide analog G, Asp-Lys-Phe-Val-(β-Ala)-Leu-Nle-NH2] | 16.4 nM | 3 nM | 26 ratio | 78.2 nM | > 80% | > 90% | 189 ratio | 3090 nM |
| DKFVGLM-NH2 [Heptapeptide analog D, Asp-Lys-Phe-Val-Gly-Leu-Met-NH2] | – | – | – | – | > 80% | > 90% | – | – |

Second part, the binder after the results:

| Ki [1] | hNK2 EC50 (intracellular calcium mobilization, FLIPR, CHO-hNK2 cells) [2] | hNK2 selectivity ratio (EC50 hNK1R/hNK2R) [2] | hNK1 EC50 (intracellular calcium mobilization, FLIPR, CHO-hNK1 cells) [3] | maximal calcium response compared to Neurokinin A [4] | maximal calcium response compared to Substance P [5] | hNK2 selectivity ratio [6] | Ki [7] | Binder |
| --- | --- | --- | --- | --- | --- | --- | --- | --- |
| 1.74 nM | 0.2 nM | 9 ratio | 1.71 nM | > 80% | > 90% | 72.5 ratio | 126 nM | DRFVGLX (HELM PEPTIDE1{D.R.F.V.G.L.[Nle].[am]}$$$$V2.0; N-terminus assumed; SMILES CCCC[C@H](NC(=O)[C@H](CC(C)C)NC(=O)CNC(=O)[C@@H](NC(=O)[C@H](Cc1ccccc1)NC(=O)[C@H](CCCNC(=N)N)NC(=O)[C@@H](N)CC(=O)O)C(C)C)C(N)=O, synthetic heptapeptide analog of neurokinin A, Fmoc solid-phase synthesis; also called Compound J; Cmpd J) [Heptapeptide analog J, Asp-Arg-Phe-Val-Gly-Leu-Nle-NH2] |
| 0.31 nM | 0.19 nM | 0.8 ratio | 0.16 nM | > 80% | > 90% | 27.1 ratio | 8.32 nM | DRFVGLM-NH2 (synthetic heptapeptide analog of neurokinin A, Fmoc solid-phase synthesis; also called Compound H; Cmpd H) [Heptapeptide analog H, Asp-Arg-Phe-Val-Gly-Leu-Met-NH2] |
| 0.88 nM | 0.15 nM | 12 ratio | 1.83 nM | > 80% | > 90% | 108 ratio | 95.5 nM | DRFVALM (HELM PEPTIDE1{D.R.F.V.[bAla].L.M.[am]}$$$$V2.0; N-terminus assumed; SMILES CSCC[C@H](NC(=O)[C@H](CC(C)C)NC(=O)CCNC(=O)[C@@H](NC(=O)[C@H](Cc1ccccc1)NC(=O)[C@H](CCCNC(=N)N)NC(=O)[C@@H](N)CC(=O)O)C(C)C)C(N)=O, synthetic heptapeptide analog of neurokinin A, Fmoc solid-phase synthesis; also called Compound I; Cmpd I) [Heptapeptide analog I, Asp-Arg-Phe-Val-(β-Ala)-Leu-Met-NH2] |
| 6.85 nM | 1.16 nM | 25 ratio | 29.5 nM | > 80% | > 90% | 176 ratio | 1200 nM | DRFVALX (HELM PEPTIDE1{D.R.F.V.[bAla].L.[Nle].[am]}$$$$V2.0; N-terminus assumed; SMILES CCCC[C@H](NC(=O)[C@H](CC(C)C)NC(=O)CCNC(=O)[C@@H](NC(=O)[C@H](Cc1ccccc1)NC(=O)[C@H](CCCNC(=N)N)NC(=O)[C@@H](N)CC(=O)O)C(C)C)C(N)=O, synthetic heptapeptide analog of neurokinin A, Fmoc solid-phase synthesis; also called Compound K; Cmpd K) [Heptapeptide analog K, Asp-Arg-Phe-Val-(β-Ala)-Leu-Nle-NH2] |
